From patent US20200148768A1

Biological target: T1, human BTN1A1-ECD-His6 (human), Q13410
T1 chain: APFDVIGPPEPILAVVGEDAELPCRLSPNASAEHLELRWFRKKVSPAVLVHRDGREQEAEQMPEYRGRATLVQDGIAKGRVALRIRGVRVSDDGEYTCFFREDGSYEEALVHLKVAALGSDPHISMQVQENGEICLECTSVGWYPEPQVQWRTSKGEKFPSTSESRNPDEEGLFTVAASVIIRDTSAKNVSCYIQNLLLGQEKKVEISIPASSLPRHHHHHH
Assay: SPR (Biacore), antibody on mIgG capture chip, BTN1A1-ECD-His 2-64 nM
Conditions: remark: other sources report otherwise

Kd: 12.4 nM
B1: STC810 (antibody, V domains shown)
VH: EVQLQQSGPELVKPGASVKISCKASGYTFTHYNMDWVKQSHGKSLEWIGYIYPSNGGTGYNQKFKSRATLTVDKSSSTAYMELHSLTSEDSAVYYCARGAYHYGSSYAYWYFDVWGAGTTVTVSS
VL: DIQMTQTTSSLSASLGDRVTISCSASQDISNYLNWYQQKPDETVKLLISYTSSLHSGVPSRFSGSGSGTDYSLTISNLAPEDIATYYCQQSSKLPFTFGSGTELEIKRA
modifications: here or on the partner: N-glycosylated (PNGase F sensitive)
